In US8394929B2, “Nogo receptor-mediated blockade of axonal growth” (Yale University, priority 2000, dated 2013):

Assays:
3T3 fibroblasts = test: 3T3 fibroblast spreading; type: cell-based, mouse
Procedure: (a) is a schematic diagram which summarizes features of the Nogo proteins utilized in this study. (b) is a photograph of NIH-3T3 fibroblasts cultured on surfaces coated with Amino-Nogo, GST-Nogo-66 or no protein and stained for filamentous actin (scale bar, 40 μm). (c) is a photograph of chick E12 dorsal root ganglions cultured on surfaces coated with Amino-Nogo, GST-Nogo-66 or no protein (substrate-bound) or with 100 nM Nogo protein (soluble) (scale bar, 40 μm). (d) is a photograph of a gel and an immunoblot where purified Amino-Nogo-Myc-His protein was subjected to SDS-PAGE and stained with Commassie Brilliant Blue (CBB) or immunoblotted with anti-Myc antibodies (Myc) (molecular weight markers of 200, 116, 97, 65 & 45 kDa are at left). (e) is a graph displaying experimental data where the percentage of 3T3 fibroblasts with an area greater than 1200 μm^2 (spread) was measured from experiments as in (b) on Nogo-coated surfaces (black) or with soluble 100 nM Nogo preparations (blue) (AM, Amino-Nogo; AM+Myc, Amino-Nogo preincubated with anti-Myc antibody; AM+Myc+Mo, AM+Myc preincubated with anti-mouse IgG antibody; Myc+Mo, anti-Myc antibody plus anti-murine IgG antibody). (f) is a graph displaying experimental data where the percentage of spread COS-7 cells was determined after culture on Nogo-coated surfaces or with soluble 100 nM Nogo preparations. (g) is a graph displaying experimental data where the effects of purified preparations of GST-Nogo-66 or Amino-Nogo on growth cone morphology was assessed in E12 dorsal root ganglion cultures at the indicated concentrations after thirty minutes. […] (h) is a graph displaying experimental data where the neurite outgrowth per cell in […] dorsal root ganglion cultures was quantitated from experiments as in (c) on Nogo-coated surfaces or with soluble 100 nM Nogo preparations. (i) is a graph displaying experimental data where the effects of Nogo preparations on neurite outgrowth in cerebellar granule neurons was measured.
Assays of Nogo-A function have included growth cone collapse, neurite outgrowth, and fibroblast spreading with substrate-bound and soluble protein preparations (Caroni & Schwab, (1988) J. Cell Biol. 106, 1281-1288; GrandPré et al., (2000) Nature 403, 439-444; Chen et al., (2000) Nature 403, 434-439; Prinjha et al., (2000) Nature 403, 483-484). […] Since NI250 preparations and full length Nogo-A are non-permissive for 3T3 spreading, it was necessary to consider whether different domains of Nogo might subserve this in vitro activity. To facilitate a comparison of different Nogo-A domains, the acidic amino terminal 1040 amino acid fragment (Amino-Nogo) was expressed as a Myc-his tagged protein in HEK293T cells (FIG. 1d). The Nogo protein is present in cytosolic fractions. […]

[1] = system: chick dorsal root ganglion neurons; test: Neurite outgrowth assay in chick DRG neurons; type: cell-based
Procedure: (§1) For all experiments involving cell culture, the following methods were employed. The culture of embryonic chick E10 and E12 dorsal root ganglion explants and dissociated neurons utilized methods described for E7 dorsal root ganglion cultures (Takahashi et al., (1998) Nature Neurosci. 1, 487-493; Takahashi et al., (1999) Cell 99, 59-69; Goshima et al., (1995) Nature 376, 509-514; Jin & Strittmatter, (1997) J. Neurosci. […]). NGF-differentiated PC12 cells were cultured as described (Strittmatter et al., (1994) J. Neurosci. 14, 2327-2338). Embryonic spinal cord explants (rat E10 or chick E5) were cultured for 7-14 days in the presence of PDGF-AA to induce differentiation of some cells into mature oligodendrocytes (Vartanian et al., (1999) Proc. Natl. Acad. Sci. USA 96, 731-735). The procedure for growth cone collapse assays is identical to that for analysis of Sema3A-induced growth cone collapse (Takahashi et al., (1998) Nature Neurosci. 1, 487-493; Takahashi et al., (1999) Cell 99, 59-69; Goshima et al., (1995) Nature 376, 509-514; Jin & Strittmatter, (1997) J. Neurosci. 17, 6256-6263). The method for analysis of total neurite outgrowth has also been described (Goshima et al., (1995) Nature 376, 509-514; Jin & Strittmatter, (1997) J. Neurosci. 17, 6256-6263; Strittmatter et al., (1994) J. Neurosci. 14, 2327-2338). In outgrowth assays, proteins and peptides were added one hour after plating to minimize any effect on the total number of adherent cells. To test the effect of substrate-bound GST or GST-Nogo, the protein solutions were dried on poly-L-lysine coated glass, washed and then coated with laminin. For E12 cultures, the neuronal identity of cells was verified by staining with anti-neurofilament antibodies (2H3, Develomental Studies Hybridoma Bank) and neurites were traced by observation of rhodamine-phalloidin staining of F-actin in processes.
For neurite outgrowth assays, plastic chamber slides were coated with 100 μg ml^−1 poly-L-lysine, washed, and dried. 3 μl drops of PBS containing GST-Nogo-66 were spotted and dried. Slides were then rinsed and coated with 10 μg ml fs24^−1 laminin before addition of dissociated E12 chick DRGs. AP-fusion proteins were added at the time of cell plating. Cultures were grown for 5-7 h after which neurite outgrowth was assessed.

[2] = system: chick E12 dorsal root ganglion growth cones; test: Growth cone collapse assay in chick dorsal root ganglion explants; type: cell-based; conditions: soluble form at 100 nM; chick E12 DRG
Procedure: as §1
The expression of recombinant Nogo in HEK293T cells allows a rigorous test of whether this protein has axon outgrowth inhibiting effects. Washed membrane fractions from vector- or hNogo-A-Myc-transfected HEK293T cells were added to chick E12 dorsal root ganglion explant cultures. Growth cone morphology was assessed after a thirty minute incubation at 37° C. by fixation and rhodamine-phalloidin staining.
Briefly, for growth cone collapse, DRG explants were plated on plastic chamber slides precoated with 100 μg ml^−1 poly-L-lysine and 10 μg ml^−1 laminin. Cultures were grown 14-16 h prior to treatment.

COS-7 cells = test: COS-7 cell spreading; type: cell-based
Procedure: (§2) (a) is a schematic diagram which summarizes features of the Nogo proteins utilized in this study. (b) is a photograph of NIH-3T3 fibroblasts cultured on surfaces coated with Amino-Nogo, GST-Nogo-66 or no protein and stained for filamentous actin (scale bar, 40 μm). (c) is a photograph of chick E12 dorsal root ganglions cultured on surfaces coated with Amino-Nogo, GST-Nogo-66 or no protein (substrate-bound) or with 100 nM Nogo protein (soluble) (scale bar, 40 μm). […] (e) is a graph displaying experimental data where the percentage of 3T3 fibroblasts with an area greater than 1200 μm^2 (spread) was measured from experiments as in (b) on Nogo-coated surfaces (black) or with soluble 100 nM Nogo preparations (blue) (AM, Amino-Nogo; AM+Myc, Amino-Nogo preincubated with anti-Myc antibody; AM+Myc+Mo, AM+Myc preincubated with anti-mouse IgG antibody; Myc+Mo, anti-Myc antibody plus anti-murine IgG antibody). (f) is a graph displaying experimental data where the percentage of spread COS-7 cells was determined after culture on Nogo-coated surfaces or with soluble 100 nM Nogo preparations. (g) is a graph displaying experimental data where the effects of purified preparations of GST-Nogo-66 or Amino-Nogo on growth cone morphology was assessed in E12 dorsal root ganglion cultures at the indicated concentrations after thirty minutes. […]

[3] = system: Mouse P4 cerebellar granule neurons; test: Cerebellar granule neuron axon outgrowth; type: cell-based
Procedure: as §2

[4] = dimerized with anti-Myc antibody
[5] = substrate-bound / coated surfaces

B1: Amino-Nogo: acidic amino terminal 1040 amino acid fragment of Nogo-A expressed as a Myc-his tagged protein in HEK293T cells (protein, UniProt Q9NQC3 1-1040, looked up, fragment)
chain: MEDLDQSPLVSSSDSPPRPQPAFKYQFVREPEDEEEEEEEEEEDEDEDLEELEVLERKPAAGLSAAPVPTAPAAGAPLMDFGNDFVPPAPRGPLPAAPPVAPERQPSWDPSPVSSTVPAPSPLSAAAVSPSKLPEDDEPPARPPPPPPASVSPQAEPVWTPPAPAPAAPPSTPAAPKRRGSSGSVDETLFALPAASEPVIRSSAENMDLKEQPGNTISAGQEDFPSVLLETAASLPSLSPLSAASFKEHEYLGNLSTVLPTEGTLQENVSEASKEVSEKAKTLLIDRDLTEFSELEYSEMGSSFSVSPKAESAVIVANPREEIIVKNKDEEEKLVSNNILHNQQELPTALTKLVKEDEVVSSEKAKDSFNEKRVAVEAPMREEYADFKPFERVWEVKDSKEDSDMLAAGGKIESNLESKVDKKCFADSLEQTNHEKDSESSNDDTSFPSTPEGIKDRSGAYITCAPFNPAATESIATNIFPLLGDPTSENKTDEKKIEEKKAQIVTEKNTSTKTSNPFLVAAQDSETDYVTTDNLTKVTEEVVANMPEGLTPDLVQEACESELNEVTGTKIAYETKMDLVQTSEVMQESLYPAAQLCPSFEESEATPSPVLPDIVMEAPLNSAVPSAGASVIQPSSSPLEASSVNYESIKHEPENPPPYEEAMSVSLKKVSGIKEEIKEPENINAALQETEAPYISIACDLIKETKLSAEPAPDFSDYSEMAKVEQPVPDHSELVEDSSPDSEPVDLFSDDSIPDVPQKQDETVMLVKESLTETSFESMIEYENKEKLSALPPEGGKPYLESFKLSLDNTKDTLLPDEVSTLSKKEKIPLQMEELSTAVYSNDDLFISKEAQIRETETFSDSSPIEIIDEFPTLISSKTDSFSKLAREYTDLEVSHKSEIANAPDGAGSLPCTELPHDLSLKNIQPKVEEKISFSDDFSKNGSATSKVLLLPPDVSALATQAEIESIVKPKVLVKEAEKKLPSDTEKEDRSPSAIFSAELSKTSVVDLLYWRDIKKTGVVFGASLFLLLSLTVFSIVSVT
modifications: Myc-His tag
notes: acidic amino terminal 1040 amino acid fragment of Nogo-A expressed as a Myc-his tagged protein in HEK293T cells
3T3 spreading (in words) (3T3 fibroblasts; [4]): inhibits | non-neuronal cell spreading (in words) (3T3 fibroblasts; soluble, 100 nM): does not significantly modulate | 3T3 fibroblast spreading (in words) (3T3 fibroblasts; [5]): fail to support 3T3 fibroblast spreading | dorsal root ganglion axon outgrowth (in words) ([1]; Amino-Nogo with anti-Myc antibody, further aggregated by anti-Mouse IgG antibody): significantly reduces | neurite/axon outgrowth (in words) ([1]; soluble protein or peptide added to culture): does not significantly modulate | neurite/axon outgrowth (in words) [1, 5]: axonal outgrowth is reduced to low levels | growth cone morphology (in words) [2]: does not significantly modulate | COS-7 spreading (in words) (COS-7 cells; [4]): inhibits | non-neuronal cell spreading (in words) (COS-7 cells; soluble, 100 nM): does not significantly modulate | cerebellar axon outgrowth (in words) [3, 4]: tends to reduce cerebellar axon outgrowth | cerebellar axon outgrowth (in words) ([3]; further aggregated by anti-Mouse IgG antibody): significantly reduces
